Kd data for 7 molecules are collected here from publication PMC6539110, “A Novel G-Quadruplex Binding Protein in Yeast—Slx9”.

Data set [1] addresses T1, Slx9 (6xHis-Slx9) (Saccharomyces cerevisiae, UniProt P53251 1-210).
T1 sequence: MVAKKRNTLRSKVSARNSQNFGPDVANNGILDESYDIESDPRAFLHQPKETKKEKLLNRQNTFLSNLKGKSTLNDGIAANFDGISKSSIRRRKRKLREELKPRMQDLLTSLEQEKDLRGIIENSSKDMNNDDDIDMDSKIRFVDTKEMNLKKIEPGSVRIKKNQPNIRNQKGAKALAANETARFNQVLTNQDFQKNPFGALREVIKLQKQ
As to the kind of experiment: filter binding; Filter binding: 50 mM Tris/HCl pH 8.0, 125 mM KCl, 5 mM DTT, 10% glycerol, 10 nM DNA, 0-65 uM Slx9, on ice 30 min; MST: 25 nM Cy5-DNA, NaCl (buffer partly given), 0.5% BSA, 0.05% Tween-20, 24 C. The following applies: protein: recombinant, tags: 6xHis (pET28a EcoRI/NotI; about 30 kDa).

Data set [2] addresses T1, Slx9 (6xHis-Slx9). As to the kind of experiment: filter binding; listed as G4TP2; Filter binding: 50 mM Tris/HCl pH 8.0, 125 mM KCl, 5 mM DTT, 10% glycerol, 10 nM DNA, 0-65 uM Slx9, on ice 30 min; MST: 25 nM Cy5-DNA, NaCl (buffer partly given), 0.5% BSA, 0.05% Tween-20, 24 C. Particulars: protein: recombinant; tags: 6xHis (pET28a EcoRI/NotI; about 30 kDa); label: 5' 32P; folded G4.

B1: dsDNA (dsDNA)
DNA 1: GACGCTGCCGAATTCTGGCTTGCTAGGACATCTTTGCCCACGTTGACCCG
DNA 2: CGGGTCAACGTGGGCAAAGATGTCCTAGCAAGCCAGAATTCGGCAGCGTC
By Kd is commonly meant the constant that tells how readily two partners part at equilibrium. Regarding B1, the Kd with Slx9 (6xHis-Slx9) [1] (label: 5' 32P, blunt) worked out at 5.27 ± 1.18 µM.

B2: fork (dsDNA)
DNA 1: GACGCTGCCGAATTCTGGCTTGCTAGGACATCTTTGCCCACGTTGACCCG
DNA 2: CGGGTCAACGTGGGCAAAGATGTCCTAGCAATGTAATCGTCTATGACGTC
As for B2, the Kd with Slx9 (6xHis-Slx9) [1] (label: 5' 32P, fork 1:2, 5' arm of strand 1 and 3' arm of strand 2 unpaired (about 19 nt)) was determined as 4.21 ± 0.64 µM.

B3: 4-fork (4-way junction) (dsDNA)
DNA 1: GACGCTGCCGAATTCTGGCTTGCTAGGACATCTTTGCCCACGTTGACCCG
DNA 2: CGGGTCAACGTGGGCAAAGATGTCCTAGCAATGTAATCGTCTATGACGTC
DNA 3: GACGTCATAGACGATTACATTGCTAGGACATGCTGTCTAGAGACTATCGC
DNA 4: GCGATAGTCTCTAGACAGCATGTCCTAGCAAGCCAGAATTCGGCAGCGTC
Take B3: the Kd with Slx9 (6xHis-Slx9) [1] (label: 5' 32P, four-way junction 1:2 2:3 3:4 4:1) is 3.72 ± 0.62 µM.

B4: bubble (dsDNA)
DNA 1: CGGGTCAACGTGGGCAAAGCCAATGCGATCGGCCAGAATTCGGCAGCGTC
DNA 2: GACGCTGCCGAATTCTGGCTTGCTCGGACATCTTTGCCCACGTTGACCCG
Take B4: the Kd with Slx9 (6xHis-Slx9) [1] (label: 5' 32P, blunt, central mismatched bubble) turned out to be 1.73 ± 0.42 µM. As for AAAAAAAAAAGCGTACGGTGCGTAATAACGCAAGCTATCGCG (ssDNA) [G4mut (mut-G4IX)], the Kd with Slx9 (6xHis-Slx9) [1] (5' Cy5 (MST), cannot fold G4) was determined as 15.7 ± 3.57 µM.

As for AAAAAAAAAAGGGTACGGTGGGTAATAAGGGAAGGTATCGGG (structured_DNA) [G4IX], in the data set with Slx9 (6xHis-Slx9) [1] (5' Cy5 (MST), folded G4), the Kd was 0.55 ± 0.08 µM. As to AAAAAAAAAAGGGGGAGCTGGGGTAGATGGGAATGTGAGGG (structured_DNA) [G4TP (G4TP1/G4TP2 in Fig. 1C)], in the data set with Slx9 (6xHis-Slx9) [2], the Kd amounted to 0.53 ± 0.1 µM.
